Measured values: US20240034792A1 (HARBOUR BIOMED SHANGHAI, published 2024)

Experiments:
[1] = molecular target: T1, Human PD-1 expressed on CHO-K1 cells (CHO-K1/hPD-1) (human, UniProt Q15116 25-288); assay: FACS, CHO-K1/hPD-1 cells
T1 construct: whole, on cells; also called CHO-K1 cells overexpressing human PD-1
Summary of the method: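 CHO-K1 cells overexpressing human or cynomolgus PD-1 were incubated 1 h at 4 °C with antigen-binding proteins: 8-11 concentrations, 5-fold dilutions, top final 100 nM or 300 nM, hIgG control. Binding was detected with Alexa Fluor 488 anti-human IgG (30 min, 4 °C) and read by flow cytometry.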

[2] = molecular target: T1, Human PD-1 expressed on CHO-K1 cells …; assay: FACS, CHO-K1/hPD-1 cells; remark: listed apart in the source
[3] = molecular target: T1, Human PD-1 expressed on CHO-K1 cells …; assay: FACS blocking of biotin-labeled human PD-L1 binding to CHO-K1-hPD-1 cells
[4] = molecular target: T1, Human PD-1 expressed on CHO-K1 cells …; assay: FACS, CHO-K1-hPD-1 cells
Experimental: In order to investigate the binding activity of the CD73×PD-1 bispecific antibody to human CD73 and PD-1, the binding assay at the cellular level was performed using a CHO-K1 cell strain overexpressing human CD73 or PD-1 (CHO-K1-hCD73 or CHO-K1-hPD-1). Briefly, the CHO-K1-hCD73 and CHO-K1-hPD-1 cells were digested and resuspended in an F-12K complete medium, and the cell density was adjusted to 1×10⁶ cells/mL. The cells were seeded in a 96-well V-bottom plate (Corning, #3894) at 100 μL/well, followed by the addition at 100 μL/well and centrifugation at 500 g at 4° C. for 5 min, and then the supernatant was discarded. Antibodies were 3-fold diluted to a maximum final concentration of 50 nM, and a total of 8 concentrations were set. 100 μL of the diluted antibodies was added to each well, and the cells were incubated at 4° C. for 1 h away from light. Thereafter, the cells in each well were rinsed twice with 100 μL of pre-cooled PBS, and centrifuged at 500 g at 4° C. for 5 min, and then the supernatant was discarded. Then 100 μL of a fluorescent secondary antibody (goat anti-human IgG (H+L) secondary antibody, Alexa Fluor® 488 conjugate, Invitrogen, Cat #A11013, 1:1000) was added to each well. […] Finally, the cells in each well were resuspended in 200 μL of pre-cooled PBS, and the fluorescence signal values were read using a BD FACS CANTOII.

T1 sequence (Q15116 25-288): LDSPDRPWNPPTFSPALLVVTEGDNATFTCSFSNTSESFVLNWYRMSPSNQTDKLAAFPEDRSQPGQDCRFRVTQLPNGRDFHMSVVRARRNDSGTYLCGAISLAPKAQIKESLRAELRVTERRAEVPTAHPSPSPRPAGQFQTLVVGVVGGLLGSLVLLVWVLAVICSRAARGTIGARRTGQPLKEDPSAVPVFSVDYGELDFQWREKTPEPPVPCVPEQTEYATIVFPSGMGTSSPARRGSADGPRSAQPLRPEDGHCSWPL

EC50 [1]: 8.94 nM | MFI Maximum [1]: 950000 | EC50 [2]: 8.18 nM | Maximum (MFI) [2]: 2.75e+06 | IC50 [3]: 8.86 nM | Maximum inhibition rate (%) [3]: 103% | EC50 [4]: 1.24 nM
B1: PR002481 (antibody, human IgG1, V domains shown)
VH: EVQLVETGGGLIQPGGSLRLSCAASGFNVSSHYMSWVRQAPGKGREWVSIIDGGGSTYYADSVKGRFTISRDNSKNRLYLQMNSLRAEDTAMYYCARATAVAEKNGYNYPFNYWGQGTLVTVSS
notes: Heavy-chain-only antibody (HCAb), human IgG1 Fc; two heavy chains, no light chain; also called R4004P556D1; anti-PD1 R4004P556D1 HCAb hG1
